One assay concerns the target T1, His6-PhoP (M. tuberculosis, UniProt P71814 1-247).
T1 construct: PhoP, response regulator, M. tuberculosis, full length (247 amino acids); also called His-PhoP; not shown: His6, N-terminal, kept
Kind of assay: pull-down. The following applies: both partners purified.

The target in the next assay is T2, GST-PhoP (M. tuberculosis, UniProt P71814 1-247).
T2 construct: PhoP, response regulator, M. tuberculosis; also called GST-tagged PhoP
Kind of assay: pull-down. The note with it: both partners purified.

The text below walks through data of paper PMC10723718 (PLOS Genetics, 2023).

B1: GST-PhoRC (domain or fragment)
chain: TAAAIGAGQLDRRVPQWHPRTEVGRLSLALNGMLAQIQRAVASAESSAEKARDSEDRMRQFITDASHELRTPLTTIRGFAELYRQGAARDVGMLLSRIESEASRMGLLVDDLLLLARLDAHRPLELCRVDLLALASDAAHDARAMDPKRRITLEVLDGPGTPEVLGDESRLRQVLRNLVANAIQHTPESADVTVRVGTEGDDAILEVADDGPGMSQEDALRVFERFYRADSSRARASGGTGLGLSIVDSLVAAHGGAVTVTTALGEGCCFRVSLPRVSDVDQLSLTPVVPGPP
notes: PhoR, sensor kinase, M. tuberculosis, cytoplasmic domain PhoRC, residues 193-485 (C-terminal 293 residues); also called GST-tagged PhoRC
For the molecule B1, the binding result with His6-PhoP was “binds”.

B2: His6-tagged PrrBC (cytoplasmic region of PrrB comprising C-terminal residues 200 to 446) (domain or fragment)
chain: ASEAIEIAEAMRGMLQRIWNEQNRTKEALASARDFAAVSSHELRTPLTAMRTNLEVLSTLDLPDDQRKEVLNDVIRTQSRIEATLSALERLAQGELSTSDDHVPVDITDLLDRAAHDAARIYPDLDVSLVPSPTCIIVGLPAGLRLAVDNAIANAVKHGGATLVQLSAVSSRAGVEIAIDDNGSGVPEGERQVVFERFSRGSTASHSGSGLGLALVAQQAQLHGGTASLENSPLGGARLVLRLPGPS
notes: PrrB, sensor kinase, M. tuberculosis, cytoplasmic domain residues 200-446 (247 amino acids); also called His6-PrrBC; His-PrrBC; not shown: His6, N-terminal, kept
Take B2: the binding result in the assay with GST-PhoP is recorded as “binds”.
